Data on one molecule can be found in article PMC7972864, “Fucoxanthin Prevents 6-OHDA-Induced Neurotoxicity by Targeting Keap1” (Oxidative Medicine and Cellular Longevity, 2021).

The assay addresses human Keap1 protein (human), Q14145. As to the kind of experiment: BLI. The following applies: natural protein; chains chain; biotinylated (site not stated); remark: other sources report otherwise.

One may read the Kd as a measure of binding affinity in units of concentration. Read a low Kd as tighter binding.

Sequence of human Keap1 protein (human), Q14145 (Q14145 whole entry): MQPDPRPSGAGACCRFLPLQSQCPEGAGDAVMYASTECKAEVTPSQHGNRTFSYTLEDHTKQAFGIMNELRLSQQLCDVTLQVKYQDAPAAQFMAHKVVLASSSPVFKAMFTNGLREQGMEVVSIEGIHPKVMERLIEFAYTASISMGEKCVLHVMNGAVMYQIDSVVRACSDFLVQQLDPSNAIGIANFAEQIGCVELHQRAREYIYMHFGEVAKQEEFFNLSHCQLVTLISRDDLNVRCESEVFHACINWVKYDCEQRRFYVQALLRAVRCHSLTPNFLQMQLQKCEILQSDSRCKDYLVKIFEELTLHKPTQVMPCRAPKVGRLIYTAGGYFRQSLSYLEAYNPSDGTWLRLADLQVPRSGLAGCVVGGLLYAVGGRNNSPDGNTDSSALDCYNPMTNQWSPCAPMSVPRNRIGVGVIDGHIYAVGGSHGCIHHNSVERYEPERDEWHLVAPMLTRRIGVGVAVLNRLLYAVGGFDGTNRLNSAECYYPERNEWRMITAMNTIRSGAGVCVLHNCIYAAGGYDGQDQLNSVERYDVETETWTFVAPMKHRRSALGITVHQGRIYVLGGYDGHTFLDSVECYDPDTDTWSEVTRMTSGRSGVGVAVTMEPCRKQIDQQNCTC

B1: human Nrf2 protein, Q16236 1-605 (protein)
chain: MMDLELPPPGLPSQQDMDLIDILWRQDIDLGVSREVFDFSQRRKEYELEKQKKLEKERQEQLQKEQEKAFFAQLQLDEETGEFLPIQPAQHIQSETSGSANYSQVAHIPKSDALYFDDCMQLLAQTFPFVDDNEVSSATFQSLVPDIPGHIESPVFIATNQAQSPETSVAQVAPVDLDGMQQDIEQVWEELLSIPELQCLNIENDKLVETTMVPSPEAKLTEVDNYHFYSSIPSMEKEVGNCSPHFLNAFEDSFSSILSTEDPNQLTVNSLNSDATVNTDFGDEFYSAFIAEPSISNSMPSPATLSHSLSELLNGPIDVSDLSLCKAFNQNHPESTAEFNDSDSGISLNTSPSVASPEHSVESSSYGDTLLGLSDSEVEELDSAPGSVKQNGPKTPVHSSGDMVQPLSPSQGQSTHVHDAQCENTPEKELPVSPGHRKTPFTKDKHSSRLEAHLTRDELRAKALHIPFPVEKIINLPVVDFNEMMSKEQFNEAQLALIRDIRRRGKNKVAAQNCRKRKLENIVELEQDLDHLKDEKEKLLKEKGENDKSLHLLKKQLSTLYLEVFSMLRDEDGKPYSPSEYSLQQTRDGNVFLVPKSKKPDVKKN
As for B1, the Kd turned out to be 12.6 nM.
